Reference: patent US20150111821A1

Target: FGF receptors
Experiment: cell-based or functional assay

FGFR signaling (phosphorylation of downstream ERK and AKT pathways, Western blot, HEK293 cells): 100 fold
Substance: FGF1^ΔNT (10-140αα) (SEQ ID NO: 7), N-terminally truncated FGF1 (from UniProt P05230 25-155) (ligand; the values are: fold reduction in signaling)
